Drawing on publication doi:10.1101/2020.01.09.899237, this text covers total crosslinks between the JD and HspA1A across three XL-MS experiments for one substance.

This test concerns the target DnaJB8ΔCTD (human). The test is described as follows: cross-linking.

Sequence of HspA1A (human Hsp70) (P0DMV8 whole entry): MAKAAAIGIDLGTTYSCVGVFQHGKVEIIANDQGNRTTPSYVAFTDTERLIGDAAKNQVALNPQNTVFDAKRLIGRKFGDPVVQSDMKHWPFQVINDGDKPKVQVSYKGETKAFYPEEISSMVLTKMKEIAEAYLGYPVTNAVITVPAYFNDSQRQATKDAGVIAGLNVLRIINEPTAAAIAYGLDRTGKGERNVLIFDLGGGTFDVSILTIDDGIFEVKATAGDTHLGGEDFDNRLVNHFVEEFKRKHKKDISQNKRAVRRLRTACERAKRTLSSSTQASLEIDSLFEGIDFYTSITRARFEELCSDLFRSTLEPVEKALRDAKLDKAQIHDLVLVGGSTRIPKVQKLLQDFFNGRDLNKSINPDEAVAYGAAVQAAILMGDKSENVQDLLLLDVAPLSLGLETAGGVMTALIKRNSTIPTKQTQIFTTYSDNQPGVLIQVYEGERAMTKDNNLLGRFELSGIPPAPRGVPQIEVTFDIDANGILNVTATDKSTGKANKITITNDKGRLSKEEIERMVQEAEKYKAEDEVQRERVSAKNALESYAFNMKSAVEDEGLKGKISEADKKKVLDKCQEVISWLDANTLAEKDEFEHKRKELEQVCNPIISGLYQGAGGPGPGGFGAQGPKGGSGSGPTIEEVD

Substance “HspA1A (human Hsp70) (from UniProt P0DMV8 1-641) (natural protein)” returned a total crosslinks between the JD and HspA1A across three XL-MS experiments of 14 crosslinks.
